± gives the half width of the 95% confidence interval.
Legend:
[1] = folding stability dG unfold (combined trypsin and chymotrypsin); higher = more stable
Outline: (§1)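 Only designs with AlphaFold2 dimer inter-PAE above 15 were retained; each was a mini-protein under 80 residues with no cysteine, in a PA-tagged cDNA display construct. After digestion with trypsin and chymotrypsin and sequencing, K50 was inferred by Bayesian fitting of counts, and unfolding free energy was derived per protease or combined against a sequence-predicted unfolded-state K50 and a shared folded-state K50.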

[2] = folding stability dG unfold from chymotrypsin proteolysis; higher = more stable
Outline: as §1

[3] = folding stability dG unfold from trypsin proteolysis; higher = more stable
Outline: as §1

| Sequence | folding stability dG unfold [1] | folding stability dG unfold [2] | folding stability dG unfold [3] |
| --- | --- | --- | --- |
| SAGGSAGGSAMTPDETRTVVVEEELPNGEPVVRVTDVRTLPDGSLETLGERVITREELEERSAGGSAGGSAG [r3_212_JUSTAS] | 1.65 ± 0.46 kJ/mol | 3.11 ± 0.268 kJ/mol | -1.83 ± 0.837 kJ/mol |
| SAGGSAGGSAMTPEELLKAAEELAKKLNLKVEIEVKKNENGELTITVKVYKNGKLVKEFEIKSAGGSAGGSA [r18_369_TrROS_Hall] | 20.1 ± 0.669 kJ/mol | 20.5 ± 0.46 kJ/mol | 12.8 ± 0.372 kJ/mol |
| SAGGSAGGSAMTPETIKEKYPNVDYSPSPLGGKTVYTFTFPSGSTVTVTFNPGSATITTIAGSAGGSAGGSA [r18_13_JUSTAS] | 12.4 ± 0.46 kJ/mol | 14.2 ± 0.293 kJ/mol | 9.45 ± 0.544 kJ/mol |
| SAGGSAGGSAMTVSIPPEVITSVEYDPSTNKVTITPSDGSVKTYDVESPEEVFKANNIGPESAGGSAGGSAG [r3_34_JUSTAS] | 3.15 ± 0.397 kJ/mol | 2.71 ± 0.46 kJ/mol | 3.71 ± 0.184 kJ/mol |
| SAGGSAGGSAMTVTITHDVPPDVSVTVTVTSNNKKIPVSTPSRAASATIPSSEVSSLEIVPSSAGGSAGGSA [r18_170_JUSTAS] | 2.08 ± 0.502 kJ/mol | 3.31 ± 0.18 kJ/mol | -1.51 ± 1.21 kJ/mol |
| SAGGSAGGSAMVIEDPKTNKLIEVEKLPDGTYKVTIYDKKTGEKKTITMSKKDLEKLLKALSAGGSAGGSAG [r3_162_TrROS_Hall] | 20.1 ± 1.51 kJ/mol | 20 ± 0.586 kJ/mol | 20.6 ± 1.84 kJ/mol |
| SAGGSAGGSAMVILTPDGYLKVIKSITVEEALDPETDEPVLDVKAEVEVIPLPSLDDPAFKESAGGSAGGSA [r18_6_TrMRF] | 1.66 ± 1 kJ/mol | 1.87 ± 0.364 kJ/mol | 1.05 ± 0.318 kJ/mol |
| SAGGSAGGSAMVRIEFENGLVAEFPSDLPLEEVKEKAVELAKLLSNDKKPVKVKILDIKEEGSAGGSAGGSA [r18_213_TrMRF] | 1.7 ± 0.711 kJ/mol | 3.19 ± 0.377 kJ/mol | 0.586 ± 0.628 kJ/mol |
| SAGGSAGGSAMVVEIKPEKLPNGKYKVTVTITDPSTGKTTTTPYIVDPNKFTEEDIKKKLSSAGGSAGGSAG [r3_127_JUSTAS] | 6.62 ± 0.41 kJ/mol | 6.29 ± 0.322 kJ/mol | 5.72 ± 0.23 kJ/mol |
| SAGGSAGGSANAKIPDGQKVTLDFRVMIMMRMWQFDENGGKMEPRMMMIPIEVEIEIKIPPNASAGGSAGGS [r12_668_TrROS] | 19.7 ± 0.586 kJ/mol | 21.2 ± 0.586 kJ/mol | 14.5 ± 0.418 kJ/mol |
| SAGGSAGGSANYMIKITIEYTPPNGKKEEVEVTVPGMPIDQLLNNLPPEYPVEIKDIEIYPGSAGGSAGGSA [r18_32_TrROS] | 1.37 ± 0.46 kJ/mol | 0.643 ± 0.502 kJ/mol | 1.05 ± 0.1 kJ/mol |
| SAGGSAGGSAPDIKILEPLEVDPDNGMITLKIELPGDGKVHEAIFFNPDGEPMMKFTIEIPKSAGGSAGGSA [r18_296_TrROS] | 1.25 ± 1.26 kJ/mol | 1.5 ± 1.3 kJ/mol | 0.917 ± 0.393 kJ/mol |
| SAGGSAGGSAPEVKIKVELFENENGELTATATIEVDGKLYKITVKFDKNGKIVEVKIEELPSAGGSAGGSAG [r3_165_TrROS_Hall] | 17.3 ± 1.88 kJ/mol | 18.4 ± 1.13 kJ/mol | 11.8 ± 0.92 kJ/mol |
| SAGGSAGGSAPGSMLRIPVSEEELKKKGLTPEELAKEIRERYPELPESVVVEFPPDGNIVIVESAGGSAGGS [r12_50_JUSTAS] | 4.2 ± 0.669 kJ/mol | 3.7 ± 0.234 kJ/mol | 3.79 ± 0.209 kJ/mol |
| SAGGSAGGSAPKILIVEDEKTGKLYAFVYDKDTKELYVAEFTYDKKTKKLTVKIKKVSLEDLSAGGSAGGSA [r18_505_TrROS_Hall] | 17.5 ± 1.09 kJ/mol | 19.6 ± 0.753 kJ/mol | 12.1 ± 0.377 kJ/mol |
| SAGGSAGGSAPKPKTKTIMFRFPGTPEDALDIAKEIANYFNDRGLEIEVERHPNGYIMITFPSAGGSAGGSA [r18_262_TrROS] | 10.9 ± 0.272 kJ/mol | 11.8 ± 0.142 kJ/mol | 8.82 ± 0.247 kJ/mol |
| SAGGSAGGSAPLRFEFELPGNYRVRIELEPVPDDPSAGPRYRLRIEVFDLETGEVLPFEIDGSAGGSAGGSA [r18_66_TrMRF] | 15.7 ± 0.255 kJ/mol | 17.5 ± 0.268 kJ/mol | 11.5 ± 0.272 kJ/mol |
| SAGGSAGGSAPMVLLLEFDSPEEATEAAKKIAEEFEKLGAKVEVEIFKPPEDKYLVLIRIDSAGGSAGGSAG [r3_211_TrMRF] | 16.3 ± 0.879 kJ/mol | 16.4 ± 0.502 kJ/mol | 15.3 ± 1.59 kJ/mol |
| SAGGSAGGSAPNYIKIRIKFQSDGKRHSMEIFIPDNPKKAKQIAKEMANMGGIEDVEVERYSAGGSAGGSAG [r3_310_TrROS] | 2.79 ± 0.669 kJ/mol | 2.76 ± 0.544 kJ/mol | 2.15 ± 0.544 kJ/mol |
| SAGGSAGGSAPPLDRVFVEVRVEPGEDAGVVVTHPDGRVLTAPADADVVFEFHPDVPVLVADASAGGSAGGS [r12_553_TrMRF] | -0.841 ± 0.753 kJ/mol | 0.538 ± 0.502 kJ/mol | -5.3 ± 2.05 kJ/mol |
| SAGGSAGGSAPPPPPPVYRIPIEITEIDPNGKITVTLPDLGEEITFPAPNVEVIPGDEFYIPSAGGSAGGSA [r18_89_TrROS] | 7.79 ± 0.669 kJ/mol | 6.97 ± 0.188 kJ/mol | 8.17 ± 0.46 kJ/mol |

| Sequence | folding stability dG unfold [1] | folding stability dG unfold [2] | folding stability dG unfold [3] |
| --- | --- | --- | --- |
| SAGGSAGGSAPPVKTITVELVFFNPETQEVFVLRAEVRLLPDGTLEIRTEIERVKVEPGAVLLSAGGSAGGS [r12_116_TrROS_Hall] | 8.76 ± 0.628 kJ/mol | 9.3 ± 0.46 kJ/mol | 6.85 ± 0.402 kJ/mol |
| SAGGSAGGSAPSKKVKFKVLAKNTKTGKYKEIDITAEVPVSNGKVVSIEELLKKFPDFELKPSAGGSAGGSA [r18_267_TrMRF] | 0.718 ± 0.879 kJ/mol | 0.353 ± 1.59 kJ/mol | 1.43 ± 0.46 kJ/mol |
| SAGGSAGGSAPTLELTVTLPDGLRVTVRYDLETDEVTIEVRPLPAPPPPELSEEERKKLAEESAGGSAGGSA [r18_236_TrROS_Hall] | 8.27 ± 0.502 kJ/mol | 9.43 ± 0.837 kJ/mol | 5.18 ± 0.234 kJ/mol |
| SAGGSAGGSAPTSSVVTFPYESPEEARERARELAEEERARRGVRFRVEYDPATGTVTLTAVESAGGSAGGSA [r18_368_JUSTAS] | 3.59 ± 0.544 kJ/mol | 3.88 ± 0.502 kJ/mol | 2.81 ± 0.268 kJ/mol |
| SAGGSAGGSAPWLTIIFRMDTPEMAKEIANWLREDGLDIEVETEPDPNDGRFWVMITIQLPNSAGGSAGGSA [r18_455_TrROS] | 16.6 ± 0.711 kJ/mol | 17.7 ± 0.293 kJ/mol | 15 ± 0.669 kJ/mol |
| SAGGSAGGSAPWYIAIYMPGNGRKRTYPFKSADDIKEEIKEHLGPGMNPDNVEIKIIPPDDISAGGSAGGSA [r18_350_TrROS] | -0.395 ± 1.59 kJ/mol | -3.27 ± 3.39 kJ/mol | 1.17 ± 0.586 kJ/mol |
| SAGGSAGGSARVFIVITYQNPGDGKPRQITIPIDIKDGKITLDDLKELFPGYPITNISIFPLSAGGSAGGSA [r18_494_TrROS] | 15.3 ± 0.544 kJ/mol | 15 ± 0.502 kJ/mol | 14.7 ± 0.586 kJ/mol |
| SAGGSAGGSASAEEIAAKIEALFPVKVTVVREEPTPLGRPEVVIEVDAVGVPEELLEEVLKSAGGSAGGSAG [r3_40_JUSTAS] | 2.34 ± 0.268 kJ/mol | 1.87 ± 0.138 kJ/mol | 2.84 ± 0.167 kJ/mol |
| SAGGSAGGSASIELPPDATVTLTTLDPATGTVTTTTVKVDSTGTTTLATTTTTVDPASAAAASAGGSAGGSA [r18_248_JUSTAS] | 5.9 ± 0.46 kJ/mol | 5.64 ± 0.117 kJ/mol | 5.31 ± 0.23 kJ/mol |
| SAGGSAGGSASIGGGPTGHSYKITLPNGTEKFLVMDPSTLKELIEKLGVKEVEVKDIGPLQSAGGSAGGSAG [r3_141_JUSTAS] | 2.02 ± 0.628 kJ/mol | 0.0768 ± 1.13 kJ/mol | 3.52 ± 0.322 kJ/mol |
| SAGGSAGGSASITLTLGDTPLEVSTDPSTNTYTFTYPAPGLVLTLDVSTGKLSARPLAELASAGGSAGGSAG [r3_137_JUSTAS] | 4.73 ± 0.322 kJ/mol | 7.07 ± 0.297 kJ/mol | 0.903 ± 0.46 kJ/mol |
| SAGGSAGGSASLSPDEEVEITDPANGTKYKVTKLPDGTVLLENPETGETYVRTDSNDWKLTSAGGSAGGSAG [r3_96_JUSTAS] | 3.9 ± 0.628 kJ/mol | 3.68 ± 0.753 kJ/mol | 3.68 ± 0.167 kJ/mol |
| SAGGSAGGSASMDTVVEVGPEILSTGLPIEKVTYDPNTGKTYIETPDKLYVIDSDGNITVDASAGGSAGGSA [r18_445_JUSTAS] | 7.2 ± 0.238 kJ/mol | 7.08 ± 0.105 kJ/mol | 7.19 ± 0.238 kJ/mol |
| SAGGSAGGSASMGVVDEFVVYVPGEKGEEVEVKVYKDPNSDRYIVEIKGKKIPVTDEKKALLSAGGSAGGSA [r18_67_JUSTAS] | 1.87 ± 1.09 kJ/mol | 0.417 ± 1.38 kJ/mol | 1.72 ± 0.285 kJ/mol |
| SAGGSAGGSASMKEVTILVKKKLPGGEEEESVTTVTLNPNEIDKVKEEFKKKGWEVVKVVSSAGGSAGGSAG [r3_453_JUSTAS] | 6.52 ± 0.188 kJ/mol | 7.26 ± 0.142 kJ/mol | 5.15 ± 0.0711 kJ/mol |
| SAGGSAGGSASMKVLEFPPDASIEEILEKIEKELGLSKEEIKNIKIEKIDDEEGSYKVIIESAGGSAGGSAG [r3_26_JUSTAS] | 10.8 ± 0.293 kJ/mol | 11 ± 0.226 kJ/mol | 10.1 ± 0.259 kJ/mol |
| SAGGSAGGSASMNVLVVRTKPDGTPEVTEVETGDPEKAKEEIAKRSNVTTPEGTVTVELTGVSAGGSAGGSA [r18_457_JUSTAS] | -4.02 ± 1.92 kJ/mol | -4.42 ± 1.13 kJ/mol | -4.28 ± 0.544 kJ/mol |
| SAGGSAGGSASMSYITKVEYKESPEGKLITTTTTTDPTSPNDVKTTTTVTPLPPLNPSPELKSAGGSAGGSA [r18_409_JUSTAS] | -2.2 ± 1.21 kJ/mol | -3.47 ± 3.05 kJ/mol | -1.29 ± 0.356 kJ/mol |
| SAGGSAGGSASMTVVVEREEITRRDPSSDELFEEEVVRATTTEKDGVIETTTLPEEEWEKLSSAGGSAGGSA [r18_406_JUSTAS] | -0.0847 ± 1.34 kJ/mol | -2.18 ± 0.837 kJ/mol | 1.46 ± 0.234 kJ/mol |
| SAGGSAGGSASPQVVEVLSTVPLPGSNIVIEKTSDASGNSYVYDPNTGKWFSPEEAKKLLSSAGGSAGGSAG [r3_206_JUSTAS] | 6.26 ± 0.418 kJ/mol | 7.22 ± 0.322 kJ/mol | 3.52 ± 0.238 kJ/mol |
| SAGGSAGGSASSSTFPRRNYTVTITTDPSNGKKTVTVLNPATGEATTLTPEELEADPVLAEAVSAGGSAGGS [r12_817_JUSTAS] | 6.34 ± 0.18 kJ/mol | 7.55 ± 0.0879 kJ/mol | 4.39 ± 0.0711 kJ/mol |

Source: the supplement of paper PMC12764529
